We go through one substance from US6951972.

The data set has as its system Ac transposase (Zea mays). The experiment in a line: cell_activity. The conditions noted are these: Ds excision from test plasmid in wheat immature embryos; 0 without transposase plasmid.

The substance “Ds-Ubi-bar element (254 bp Ds 5' and 320 bp Ds 3' ends)” gave an activity (blue spots per embryo) of 61.
